Experiments:
[1] = molecular target: 50S ribosomal subunit of E. coli (E. coli) (UniProt P0A7L0); test: stopped-flow Rayleigh light scattering of subunit association; naked 30S (0.25 µM final) mixed with 50S (0.25 µM final) preincubated with ObgE or ObgE-NG (0.5-20 µM in the mix); HEPES polymix buffer pH 7.5, 37°C; Ki from the midpoint of k obs against concentration
[2] = molecular target: 50S ribosomal subunit of E. coli (E. coli) (UniProt P0A7L0); test: stopped-flow Rayleigh light scattering of subunit association; 30S-preIC (0.25 µM final; mRNA, fMet-tRNAfMet, IF1, IF2, GTP) mixed with 50S (0.25 µM final) preincubated with ObgE or ObgE-NG; HEPES polymix buffer pH 7.5, 37°C; Ki from the midpoint of k obs against concentration
[3] = molecular target: 50S ribosomal subunit of E. coli (E. coli) (UniProt P0A7L0)
[4] = molecular target: 50S ribosomal subunit of E. coli (E. coli) (UniProt P0A7L0); test: co-sedimentation; as a1, with 0.5 mM ppGpp

Sequence of UniProt P0A7L0 (P0A7L0 whole entry, looked up): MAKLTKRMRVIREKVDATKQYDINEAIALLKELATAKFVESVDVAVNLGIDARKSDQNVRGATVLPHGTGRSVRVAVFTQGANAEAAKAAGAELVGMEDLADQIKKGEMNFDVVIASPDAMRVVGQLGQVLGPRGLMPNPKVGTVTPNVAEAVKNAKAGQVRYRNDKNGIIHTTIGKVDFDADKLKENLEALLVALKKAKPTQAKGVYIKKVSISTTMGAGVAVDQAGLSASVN

Ki [1] | Ki [2] | Substance | further results
– | – | 30S ribosomal subunit of E. coli (naked 30S subunit) (complex) | k obs of subunit association (without ObgE) [1]: 4 s⁻¹
2000 nM | 300 nM | ObgE (Obg protein in Escherichia coli), full-length, His-tagged (from UniProt P42641 1-390) (enzyme) | GTP hydrolysis rate of ObgE (MESG assay, phosphate release) with increasing amounts of 50S subunits up to an equal amount; without 50S ∼0.0268 min^−1; stimulated about 120-fold [3]: 3.15 min⁻¹; fold occupancy on the 50S subunit against the apo state [4]: > 5 fold
3700 nM | 1000 nM | ObgE-NG (CTD deleted construct of ObgE, residues 1-340) (from UniProt P42641 1-340) (domain or fragment) | –
– | – | mRNA programmed 30S-preinitiation complex (30S-preIC) (from UniProt P69222 1-72; P0A705 1-890) | k obs of subunit association (without ObgE) [2]: 20 s⁻¹

From publication PMC4028186
